Tests used:
[1] = molecular target: recombinant Human Fc gamma RIIA/CD32a (H167) Protein (R&D systems, 9595-CD-050, CF) (human) (UniProt P12318); assay: ELISA; antibody coated, Fc gamma receptor titrated
[2] = molecular target: recombinant Human Fc gamma RIIB/CD32b Avi-tag Protein (R&D systems, AVI1875-050, CF) (human) (UniProt P31994); assay: ELISA; antibody coated, Fc gamma receptor titrated
[3] = molecular target: recombinant Human Fc gamma RI/CD64 Protein (R&D systems, 1257-FC-050, CF) (human) (UniProt P12314); assay: ELISA; antibody coated, Fc gamma receptor titrated
[4] = molecular target: recombinant Human Fc gamma RIIIA/CD16a Protein (R&D systems, 4325-FC-050; CF) (human) (UniProt P08637); assay: ELISA; antibody coated, Fc gamma receptor titrated
[5] = molecular target: recombinant biotinylated human FcRn (human) (UniProt P55899); assay: AlphaLISA competition at pH 6; competitor: human IgG on acceptor beads
[6] = molecular target: recombinant biotinylated human FcRn (human) (UniProt P55899); assay: AlphaLISA competition at pH 6; test molecule titrated (x axis) against human IgG-conjugated acceptor beads for biotinylated human FcRn on streptavidin donor beads

Sequence of recombinant Human Fc gamma RIIB/CD32b Avi-tag Protein (R&D systems, AVI1875-050, CF) (human) (P31994 46-217 limits assumed): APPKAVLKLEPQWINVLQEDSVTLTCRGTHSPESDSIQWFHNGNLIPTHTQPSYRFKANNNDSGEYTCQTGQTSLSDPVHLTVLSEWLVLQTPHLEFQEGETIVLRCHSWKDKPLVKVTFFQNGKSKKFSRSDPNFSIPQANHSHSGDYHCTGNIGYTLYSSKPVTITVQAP
Sequence of recombinant Human Fc gamma RIIIA/CD16a Protein (R&D systems, 4325-FC-050; CF) (human) (P08637 17-208 limits assumed): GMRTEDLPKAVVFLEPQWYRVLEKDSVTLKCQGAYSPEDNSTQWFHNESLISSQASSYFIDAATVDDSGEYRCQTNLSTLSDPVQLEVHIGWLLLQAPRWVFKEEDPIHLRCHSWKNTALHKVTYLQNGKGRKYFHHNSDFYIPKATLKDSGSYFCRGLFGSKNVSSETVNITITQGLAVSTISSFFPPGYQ
Sequence of recombinant Human Fc gamma RI/CD64 Protein (R&D systems, 1257-FC-050, CF) (human) (P12314 16-288 limits assumed): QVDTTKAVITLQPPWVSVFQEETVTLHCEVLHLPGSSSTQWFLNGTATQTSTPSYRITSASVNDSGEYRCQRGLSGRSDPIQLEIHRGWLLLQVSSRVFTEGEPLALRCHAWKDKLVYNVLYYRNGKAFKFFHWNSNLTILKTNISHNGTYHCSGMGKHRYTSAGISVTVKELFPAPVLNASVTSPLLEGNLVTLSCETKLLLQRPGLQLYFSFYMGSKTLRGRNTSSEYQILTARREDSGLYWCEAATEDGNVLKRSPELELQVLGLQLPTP
Sequence of recombinant Human Fc gamma RIIA/CD32a (H167) Protein (R&D systems, 9595-CD-050, CF) (human) (P12318 36-218 limits assumed): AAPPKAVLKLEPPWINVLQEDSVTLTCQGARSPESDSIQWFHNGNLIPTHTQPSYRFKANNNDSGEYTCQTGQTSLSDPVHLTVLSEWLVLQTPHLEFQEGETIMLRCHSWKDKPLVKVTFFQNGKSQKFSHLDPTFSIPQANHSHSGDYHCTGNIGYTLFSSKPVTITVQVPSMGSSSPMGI

Kd [1]: 1350 nM
Kd [2]: 2630 nM
Kd [3]: 0.315 nM
Kd [4]: 1710 nM
Kd [5]: 6 nM
IC50 (read off the curve) [6]: 5 nM
Substance: LZM-009 (antibody)
